From article PMC7596348, “The Iron-Sulfur Flavoprotein DsrL as NAD(P)H:Acceptor Oxidoreductase in Oxidative and Reductive Dissimilatory Sulfur Metabolism” (Frontiers in Microbiology, 2020) come the findings set out here.

Holding throughout (assay): purified protein
Substrate in data set [1]: NC(=O)C1=CN([C@@H]2O[C@H](COP(=O)(O)OP(=O)(O)OC[C@H]3O[C@@H](n4cnc5c(N)ncnc54)[C@H](O)[C@@H]3O)[C@@H](O)[C@H]2O)C=CC1
It is filed as biochemical, Allochromatium vinosum. The following applies: 300 μM MTT, 50 mM potassium phosphate pH 7.0, 30°C.

Substrate in data set [2]: NC(=O)C1=CN([C@@H]2O[C@H](COP(=O)(O)OP(=O)(O)OC[C@H]3O[C@@H](n4cnc5c(N)ncnc54)[C@H](OP(=O)(O)O)[C@@H]3O)[C@@H](O)[C@H]2O)C=CC1
It counts as biochemical, Allochromatium vinosum. The following applies: 300 μM MTT, 50 mM potassium phosphate pH 7.0, 30°C.

Substrate in data set [3]: NC(=O)c1ccc[n+]([C@@H]2O[C@H](COP(=O)(O)OP(=O)(O)OC[C@H]3O[C@@H](n4cnc5c(N)ncnc54)[C@H](O)[C@@H]3O)[C@@H](O)[C@H]2O)c1
It is filed as biochemical, Allochromatium vinosum. The following applies: reduced methylviologen as donor, pH 7.0, 30°C.

Substrate in data set [4]: NC(=O)c1ccc[n+]([C@@H]2O[C@H](COP(=O)(O)OP(=O)(O)OC[C@H]3O[C@@H](n4cnc5c(N)ncnc54)[C@H](OP(=O)(O)O)[C@@H]3O)[C@@H](O)[C@H]2O)c1
It is filed as biochemical, Allochromatium vinosum. The conditions noted are these: reduced methylviologen as donor, pH 7.0, 30°C.

Substrate in data set [5]: NC(=O)C1=CN([C@@H]2O[C@H](COP(=O)(O)OP(=O)(O)OC[C@H]3O[C@@H](n4cnc5c(N)ncnc54)[C@H](O)[C@@H]3O)[C@@H](O)[C@H]2O)C=CC1
It is filed as biochemical, Chlorobaculum tepidum. The following applies: 300 μM MTT, 50 mM potassium phosphate pH 8.0, 40°C.

Substrate in data set [6]: NC(=O)c1ccc[n+]([C@@H]2O[C@H](COP(=O)(O)OP(=O)(O)OC[C@H]3O[C@@H](n4cnc5c(N)ncnc54)[C@H](O)[C@@H]3O)[C@@H](O)[C@H]2O)c1
It is filed as biochemical, Chlorobaculum tepidum. The following applies: reduced methylviologen as donor, pH 8.0, 40°C.

Substrate in data set [7]: NC(=O)C1=CN([C@@H]2O[C@H](COP(=O)(O)OP(=O)(O)OC[C@H]3O[C@@H](n4cnc5c(N)ncnc54)[C@H](OP(=O)(O)O)[C@@H]3O)[C@@H](O)[C@H]2O)C=CC1
It is filed as biochemical, Desulfurella amilsii. The conditions noted are these: 300 μM MTT, 50 mM potassium phosphate pH 6.5, 45°C.

Substrate in data set [8]: NC(=O)c1ccc[n+]([C@@H]2O[C@H](COP(=O)(O)OP(=O)(O)OC[C@H]3O[C@@H](n4cnc5c(N)ncnc54)[C@H](OP(=O)(O)O)[C@@H]3O)[C@@H](O)[C@H]2O)c1
It is filed as biochemical, Desulfurella amilsii. The following applies: reduced methylviologen as donor, pH 6.5, 45°C.

B1: AvDsrL-1A (Allochromatium vinosum DSM 180) (protein)
chain: MATSSDEMKMKPTWRRFEDGEHVWDNLTDKIFNQDRSHKCPTYVHKTPPCQGSCPSGEDIRGWLQIVRGMEKPPQGMDWQEYAFRRSTDANPFPAMMGRVCPAPCQDGCNRNELEDFVGINSVEQFIGDTAIANGYTFEAPELDTGKRIAIVGGGPAGLAAAYQLRRKGHSCTIFEANDGLGGMFRFGIPGYRVPRDKLDAEIQRILDMGRVEVRLKTRIGTDVTVEQLEKDYDAILWAIGCQSGRGLPVPGWEGTPNCVTGVAFLKAFNEGRMKVTAGKVVCVGGGDTSIDVVSVARRLGHVNKSNPNELPETVIRDGYVAHDAASAAAAQGAEVTLTSLFTRDKMTASEHEVDDATREGVTILDGVMPVEVIKDANGRAIGLKVADCTMTDGRPTPVEGTERVLEADLIVSAIGQGGDLSGLEQLDNGRGLMDSDKFYQVPGKAGHFVAGDIIRPHLLTTAIGQAWIAADSIDAYVMQAEHKRRPKVDVHHFNLLDKLTEAHLAPESFVAGQAGDMRGTSDANYAIHNYEDRSGAEVIPHEELFLGHFNYVPRNLRKEEVPSADEVLGHFHERVIGLTEPEAIDEAKRCMSCGLCFECDNCVIFCPQDAVFRVDKGSRTTGRYVDTDYAKCIGCHICADVCPTGYIKMGLGE
notes: full length, C-terminal Strep-tag (… from primer), E. coli BL21(DE3) ΔiscR; primer-coded N-term MATSS, C-term IKMGLGE; FAD and four [4Fe-4S] per monomer; homodimer
Turning to B1, in “purified protein [1]”, the Km was 86.7 ± 17.0 µM, the Vmax was determined as 11.2 µmol/min/mg, the kcat came to 13.5 s⁻¹ and the kcat/Km came to 156000 M⁻¹ s⁻¹. For the same protein, in “purified protein [2]”, the Km amounted to 1667.0 ± 230.2 µM, the maximum rate (Vmax) stood at 4 µmol/min/mg, the kcat is 4.9 s⁻¹ and the kcat/Km is 3000 M⁻¹ s⁻¹. In the data set “purified protein [3]”, the Km is 123.9 ± 10.3 µM, the Vmax was 145 µmol/min/mg, the kcat is 176 s⁻¹ and the specificity constant (kcat/Km) stood at 1.42e+06 M⁻¹ s⁻¹. Also, in the data set “purified protein [4]”, the Km was 2563.0 ± 272.1 µM, the Vmax came out at 120 µmol/min/mg, the kcat worked out at 146 s⁻¹ and the kcat/Km came out at 57000 M⁻¹ s⁻¹.

B2: CtDsrL-1B (Chlorobaculum tepidum TLS) (protein)
chain: MNAESNPILDFATEYVYPAFSELTGTDKIVAFGDHSHKCPIYVPQTPPCTAECPAGEDIRAINRFLNGTDPSDDPLKSAWETATDTNPFPAVMGRICPHPCQSKCNRGVHDESVAINAVEQVLGNYGIEHNLKLKGPGADTGKRVAIIGGGPAGLSAAYQLRRKGHAVTIYDANEKLGGMVLYGIMGYRVDRKVLEAEIGRIIELGVETKMGVTIGKDITLEQLEAEYDAVFIAVGAQKGRALPVPGFEGTPGATNAIDFLKSYEVLGDDIPVGKHVVVIGDGNVAMDVARLALRLGSQATIISGVPREEMACFENEFDDAKNEGTTMHFLTGTVEVLGGASGVTGLRCTKMVKKEKGEEGWNSPIPFLRYKSNGESFEIEADMVVAAIGQATDLSGLGSAASGPWLKVDRNFRIPGREKLFGGGDALKVDLITTAVGHGRKAAYAIDAFLKGEPMPEEPYREITKPHKQDLLYFLHTPQAKRTSIKPEVVVGNHDELLEALTPEQAITESKRCMSCGFCFDCKQCVSFCPQEAITRFRDNPAGEKVYTDYTKCVGCHLCSLVCPCGYIQMGMGDGL
notes: full length (577 residues), C-terminal Strep-tag (… from primer), E. coli BL21(DE3) ΔiscR; primer-coded N-term MNAESNP, C-term GMGDGL
Consider B2, for which, in the data set “purified protein [5]”, the Km is 267.5 ± 20.5 µM, the Vmax turned out to be 436 µmol/min/mg, the kcat was found to be 460 s⁻¹ and the kcat/Km amounted to 1.72e+06 M⁻¹ s⁻¹. In addition, in “purified protein [6]”, the Michaelis constant (Km) turned out to be 95.2 ± 9.9 µM, the Vmax came out at 366 µmol/min/mg, the turnover number (kcat) came out at 387 s⁻¹ and the kcat/Km came to 4.06e+06 M⁻¹ s⁻¹.

B3: DaDsrL-2 (Desulfurella amilsii) (protein)
chain: MAVVKVKKSIKSFSKPSGTEYSSDRPIYVEKRPPCSDTCPNGEQVREFLQYIAQAQDYGRTYEEALEGAFYIIAQTNSMPATTGRICPHPCESRCNRKDKDSAVNINASEMFIGDFAVQNKLPLKKLDETYDAKVAVIGSGPSGLSCAYHLARRGVKVTIFEKEEKPGGLLYYGIPNFRLPKEIVSAEIQRIVDLGVDIKYGKAVGKDIGIEDLKKEFDCIYVATGAYKPEKPNLENIDNIKGVYSGLEFLYHFAKGERIDIGKDVVVVGADTAADAAMISKRWGANVTFAYRRTVPDKETFDKKASREAIDAYEEGITFQFATVPVELVSENGKLTGVKFQKIKVGAKDERGHAAQVENIGEPFLVKADAFIYSVGQKPDYSGLEKLLGQSEGFVKIKDNYQVEGQDKVFAGGDVVGPRLMYVTTAIGHGFAAAVNMIEYLTGKKVIEKDTRKVIESDKMHLDLYEAKPRHERKLRDPIERIKDFEPFMNGLSMEEFIEEAKRCMSCGLCFDCGNCFTYCSHSGVKKLPKGQHYEFHLETCDGCMKCFENCPCGYIEKM
notes: full length, C-terminal Strep-tag (… from primer), E. coli BL21(DE3) ΔiscR; primer-coded N-term MAVVKVK, C-term PCGYIEKM; contains YRR motif
In the case of B3, in “purified protein [7]”, the Michaelis-Menten constant (Km) came to 124.5 ± 10.5 µM, the Vmax amounted to 103 µmol/min/mg, the kcat is 110 s⁻¹ and the kcat/Km came to 870000 M⁻¹ s⁻¹. Besides, in the data set “purified protein [8]”, the Michaelis-Menten constant (Km) is 22.0 ± 1.9 µM, the Vmax amounted to 88.8 µmol/min/mg, the kcat is 94.3 s⁻¹ and the kcat/Km was 4.2e+06 M⁻¹ s⁻¹.

What is called Km is the substrate concentration at which the rate is half of its maximum. The Vmax is the top rate of the reaction or transport when substrate is in excess. In general, kcat refers to the number of substrate molecules converted per active site and unit of time at saturation. For orientation: kcat/Km means the second-order rate constant that governs catalysis at low substrate concentration.
